The source of these data is article PMC6930692, “Superior Treg-Expanding Properties of a Novel Dual-Acting Cytokine Fusion Protein” (Frontiers in Pharmacology, 2019).

The target in series [1] is T1, mouse TNFR2-Fc (mouse, UniProt P25119 23-258).
T1 construct: mouse TNF receptor 2 (TNFR2) as an Fc fusion protein; neither the source of the protein nor the kind of Fc is told; Also used here as the TNFR2 of the functional rows (BV-2 cells, T cells, sTNFR2); also called mTNFR2-Fc
T1 sequence (looked up): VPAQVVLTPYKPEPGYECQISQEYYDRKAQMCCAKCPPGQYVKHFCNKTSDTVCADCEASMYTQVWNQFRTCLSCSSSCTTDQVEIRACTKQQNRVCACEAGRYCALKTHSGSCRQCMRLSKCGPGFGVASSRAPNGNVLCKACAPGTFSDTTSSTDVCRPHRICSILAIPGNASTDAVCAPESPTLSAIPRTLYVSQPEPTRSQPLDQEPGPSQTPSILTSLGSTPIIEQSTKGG
The series can be described thus: ELISA; mouse TNFR1-Fc or TNFR2-Fc coated at 1 µg/ml in PBS; fusion proteins in 2% skim milk powder in PBS, 1 h at RT; detected with anti-TNF (HP8001) or anti-his-tag antibody and HRP-conjugated secondary antibody. Particulars: both partners purified.

In series [2] the target is T1, mouse TNFR2-Fc. As to the kind of experiment: quartz crystal microbalance; TNFR2-Fc chemically immobilised on a carboxyl sensor chip at high density (270 Hz); PBST (PBS, 0.1% Tween 20) pH 7.4, 37°C; analytes 2 to 32 nM; Kd = koff/kon assuming 1:1 binding. The note with it: both partners purified.
Series [3] concerns the molecule itself. As to the kind of experiment: SDS-PAGE under non-reducing conditions; 2 µg purified fusion protein, 8% SDS-PAGE with and without 2-ME, Coomassie staining; disulfide-linked dimer.
The target of a further series is T2, mouse TNFR1-Fc (mouse, UniProt P25118 30-212).
T2 construct: mouse TNF receptor 1 (TNFR1) as an Fc fusion protein; neither the source of the protein nor the kind of Fc is told; Also used here as the TNFR1 of the L929 functional rows; also called mTNFR1-Fc
T2 sequence (looked up): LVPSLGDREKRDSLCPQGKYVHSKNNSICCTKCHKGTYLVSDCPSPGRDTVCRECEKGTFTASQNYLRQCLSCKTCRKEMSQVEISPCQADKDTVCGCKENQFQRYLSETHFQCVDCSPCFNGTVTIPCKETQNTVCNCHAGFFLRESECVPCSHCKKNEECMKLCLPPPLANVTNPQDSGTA
As to the kind of experiment: ELISA; mouse TNFR1-Fc or TNFR2-Fc coated at 1 µg/ml in PBS; fusion proteins in 2% skim milk powder in PBS, 1 h at RT; detected with anti-TNF (HP8001) or anti-his-tag antibody and HRP-conjugated secondary antibody. Particulars: both partners purified.

B1: IL2-EHD2-sc-mTNFR2 (ligand)
chain: APTSSSTSSSTAEAQQQQQQQQQQQQHLEQLLMDLQELLSRMENYRNLKLPRMLTFKFYLPKQATELKDLQCLEDELGPLRHVLDLTQSKSFQLEDAENFISNIRVTVVKLKGSDNTFECQFDDESATVVDFLRRWIAFCQSIISTSPQPTVKILQSSCDGGGHFPPTIQLLCLVSGYTPGTINITWLEDGQVMDVDLSTASTTQEGELASTQSELTLSQKHWLSDRTYTCQVTYQGHTFEDSTKKCAPVAHVVANHQVEEQLEWLSQRANALLANGMDLKDNQLVVPADGLYLVYSQVLFKGQGCPDYVLLTHTVSRFAISYQEKVNLLSAVKSPCPKDTPEGAELKPWYEPIYLGGVFQLEKGDQLSAEVNLPKYLNFRESGQVYFGVIALPVAHVVANHQVEEQLEWLSQRANALLANGMDLKDNQLVVPADGLYLVYSQVLFKGQGCPDYVLLTHTVSRFAISYQEKVNLLSAVKSPCPKDTPEGAELKPWYEPIYLGGVFQLEKGDQLSAEVNLPKYLNFRESGQVYFGVIALPVAHVVANHQVEEQLEWLSQRANALLANGMDLKDNQLVVPADGLYLVYSQVLFKGQGCPDYVLLTHTVSRFAISYQEKVNLLSAVKSPCPKDTPEGAELKPWYEPIYLGGVFQLEKGDQLSAEVNLPKYLNFRESGQVYFGVIAL
In the series with mouse TNFR2-Fc [1], B1 came in with an EC50 of 0.053 nM. In the series with mouse TNFR2-Fc [2], this molecule showed a dissociation constant (Kd) of 0.89 nM and a kon of 589000 M⁻¹ s⁻¹. Besides, the “stoichiometry N” value in series [3] was found to be 2.

B2: EHD2-sc-mTNFR2 (ligand)
chain: PTVKILQSSCDGGGHFPPTIQLLCLVSGYTPGTINITWLEDGQVMDVDLSTASTTQEGELASTQSELTLSQKHWLSDRTYTCQVTYQGHTFEDSTKKCAPVAHVVANHQVEEQLEWLSQRANALLANGMDLKDNQLVVPADGLYLVYSQVLFKGQGCPDYVLLTHTVSRFAISYQEKVNLLSAVKSPCPKDTPEGAELKPWYEPIYLGGVFQLEKGDQLSAEVNLPKYLNFRESGQVYFGVIALPVAHVVANHQVEEQLEWLSQRANALLANGMDLKDNQLVVPADGLYLVYSQVLFKGQGCPDYVLLTHTVSRFAISYQEKVNLLSAVKSPCPKDTPEGAELKPWYEPIYLGGVFQLEKGDQLSAEVNLPKYLNFRESGQVYFGVIALPVAHVVANHQVEEQLEWLSQRANALLANGMDLKDNQLVVPADGLYLVYSQVLFKGQGCPDYVLLTHTVSRFAISYQEKVNLLSAVKSPCPKDTPEGAELKPWYEPIYLGGVFQLEKGDQLSAEVNLPKYLNFRESGQVYFGVIAL
For the molecule B2, it took 0.031 nM to reach a half-maximal effect with mouse TNFR2-Fc [1] (EC50). In the series with mouse TNFR2-Fc [2], binding was characterised by a dissociation constant (Kd) of 0.12 nM and the kon was determined as 1.2e+06 M⁻¹ s⁻¹. The “stoichiometry N” value in series [3] worked out at 2.

B3: soluble recombinant mouse TNF (ligand, UniProt P06804 80-235, looked up)
chain: LRSSSQNSSDKPVAHVVANHQVEEQLEWLSQRANALLANGMDLKDNQLVVPADGLYLVYSQVLFKGQGCPDYVLLTHTVSRFAISYQEKVNLLSAVKSPCPKDTPEGAELKPWYEPIYLGGVFQLEKGDQLSAEVNLPKYLDFAESGQVYFGVIAL
notes: soluble recombinant mouse tumor necrosis factor (TNF), wild type; Positive control; also called sTNF; wild-type soluble TNF
For B3, the binding result with mouse TNFR1-Fc was “binds”.
